Consider 21 molecules from patent US20250163183A1 (COAGULANT THERAPEUTICS, published 2025).

Numbering of substitutions follows the chain as printed.

Assay [1] addresses T1, human APC-PPACK (active site-blocked APC) (human, UniProt P04070 43-461, active site bound by the tripeptide inhibitor Phe-Pro-Arg-chloromethylketone (PPACK)).
T1 construct: Bought (Haematologic Technologies)
The assay can be described thus: ELISA. A general note: ELISA stands for enzyme-linked immunosorbent assay.

In assay [2] the target is T2, human protein C (PC) zymogen (human, UniProt P04070 43-197; P04070 200-461).
T2 construct: Bought
The assay can be described thus: ELISA.

Assay [3] addresses T2, human protein C (PC) zymogen. The assay is described as follows: ELISA screen, PC-coated wells, OD450, n=2.

T1 sequence (P04070 other isoform, or with tags, fused parts or gaps): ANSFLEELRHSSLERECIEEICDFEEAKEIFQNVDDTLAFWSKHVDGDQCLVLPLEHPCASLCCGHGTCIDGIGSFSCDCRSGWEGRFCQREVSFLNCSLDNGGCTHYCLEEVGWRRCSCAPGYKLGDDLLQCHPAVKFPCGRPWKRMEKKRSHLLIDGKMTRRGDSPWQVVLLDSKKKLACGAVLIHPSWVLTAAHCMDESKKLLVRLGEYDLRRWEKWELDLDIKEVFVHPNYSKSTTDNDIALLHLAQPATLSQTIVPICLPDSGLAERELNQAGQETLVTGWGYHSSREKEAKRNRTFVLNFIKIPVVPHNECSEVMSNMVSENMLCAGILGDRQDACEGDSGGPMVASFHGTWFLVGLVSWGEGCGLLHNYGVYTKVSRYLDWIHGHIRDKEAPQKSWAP
T2 sequence (P04070 43-197, chain 1 of 2): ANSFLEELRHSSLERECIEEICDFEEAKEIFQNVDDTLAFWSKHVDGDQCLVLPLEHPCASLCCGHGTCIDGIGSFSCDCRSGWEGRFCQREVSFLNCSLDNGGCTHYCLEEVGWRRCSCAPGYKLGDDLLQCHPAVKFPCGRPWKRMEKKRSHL
T2 sequence (P04070 200-461, chain 2 of 2): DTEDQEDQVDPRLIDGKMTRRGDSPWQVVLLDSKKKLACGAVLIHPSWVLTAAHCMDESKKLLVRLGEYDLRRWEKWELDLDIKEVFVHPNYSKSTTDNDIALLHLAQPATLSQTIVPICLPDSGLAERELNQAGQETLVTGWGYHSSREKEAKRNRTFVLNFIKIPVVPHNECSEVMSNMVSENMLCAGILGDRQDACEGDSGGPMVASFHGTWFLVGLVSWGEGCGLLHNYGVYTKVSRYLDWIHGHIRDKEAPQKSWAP

B1: SR16983-R3-P4-G01 (VHH)
VHH: QLQLVESGGGLVQAGGSLRLSCAASGRTFVGSYVMGWFRQAPGKEREFVAASSRSTGNTVYLDSVKGRFTISRDDAKNMLYLQMNSLKPEDTAVYYCATRASINYNYANWPYWGQGTQVTVSS
On to B1, for which the binding result was “binds” in assay [1] and “no binding” in assay [2].

B2: SR16983-R3P2E7 (VHH)
VHH: QLQLVESGGGLVQAGGSLRLSCVASGTTFTIEDIGWYRLAPGKQRELVAIISGGNTNYADSVKGRFTISRDNAKNTVFLQMNSLKPEDTAVYYCNARTKATAKWGRGIQVTVSS
Consider B2, for which the binding result is recorded as “binds” in assay [1] and “no binding” in assay [2].

B3: SR16983-R2-P2-G01 (VHH)
VHH: EVQLVESGGGLVQAGESLRLSCVVSGSRFRISGMGWYRQAPEKQRELVAAITRGGSTNYSDSVKGRFTISSDNAKNTVYLQMNSLKPDDTDVYYCAATVLDIPTMSTDDYWGQGTQVTVSS
As to B3, the binding result in assay [1] is given as “binds”; in assay [3] it was “no binding”.

B4: SR16983-R2-P2-D05 (VHH)
VHH: QVQLVESGGGLVQPGGSLTLSCAASGTIESINDMGWYRQAPGKQRELVAAITSGGSTNYADSVKGRFTISRDNAKNTVYLQMNSLKPEDTAVYYCNAEVKRHYYYDSAGHRYWGQGTQVTVSS
For B4, the values for the binding result in assay [1] and in assay [2] were “binds” and “no binding”, respectively.

B5: SR16983-R2-P2-D08 (VHH)
VHH: QLQLVESGGGLVQAGDSLRLSCALSGLAASTYAMAWFRQAPGKEREFVSVIDWKGDSTTANSVKGRFTISRDHGKNTVYLQMNSLQPEDTALYYCAARGSPGYVAKLYAHWGRGTQVTVSS
Consider B5, for which the binding result was “binds” in assay [1] and “no binding” in assay [2].

B6: SR16983-R3-P4-A08 (VHH)
VHH: B5 VHH with A23V, L24F, A28T, S57T, T59Y, H73N, K75N, N76K, K106R
As to B6, the binding result is listed as “binds” in assay [1] and “no binding” in assay [2].

B7: SR16983-R3-P3-F01 (VHH)
VHH: B5 VHH with Q1E, L2V, L24R, A28T, S57T, T59Y, H73N, G102A, K106R, H110Y
In the case of B7, the binding result was “binds” in assay [1] and “no binding” in assay [2].

B8: SR16983-R3P2B6 (VHH)
VHH: QLQLVESGGGLVQAGGSLRLACAASGFSFDDYAIGWFRQAPGKEREGVSCITSDGSTYYADSVKGRFTISSDNAKNTVYLQMNILKPEDTAVYYCARGGLLLPKPELFEYWGQGTQVTVSS
B8: the binding result is on record as “binds” in assay [1] and “no binding” in assay [2].

B9: SR16983-R3-P2-A08 (VHH)
VHH: QVQLVESGGGLVQAGGSLRLSCAASGRTSSNYNMGWFRQAPGKEREFVAAIPWTGSTTYYADPVKGRFTISRDSTKNTGDLQMNSLKPEDTAVYYCALGRRENYYALLQQRGYDYWGQGTQVTVSS
In the case of B9, the binding result in assay [1] was “binds”; in assay [2], “no binding”.

B10: SR16983-R2-P2-G09 (VHH)
VHH: QLQLVESGGGLVQAGGSLRLSCVASGTTFSIEETYWYRLAPGKQRELVAVISGGGNTNYADSVKGRFTISRDNAKNTVYLQMNSLKPEDTAVYYCSARTIATVKWGQGIQVTVSS
For the molecule B10, the binding result is “binds” in assay [1] and “no binding” in assay [2].

B11: SR16983-R2-P4-B05 (VHH)
VHH: QVQLVESGGGLVQAGGSLRLSCAASGRVFGTYVMGWFRQAPGKEREFVAAFSRSTGHITYADSVKGRFTISRDDAKNTLYLQMNSLKPEDTAVYYCATRASINYNYANWPYWGQGTQVTVSS
For B11, the results for the binding result in assay [1] and in assay [2] were “binds” and “no binding”, respectively.

B12: SR16983-R2-P4-G01 (VHH)
VHH: B11 VHH with V2L, V28T, F29V, T31S, V48L, F51N, H57N, I58T, T59V, T119N
On to B12, for which the binding result in assay [1] is “binds”; in assay [2] it was “no binding”.

B13: SR16983-R3P2A9 (VHH)
VHH: QVQLVESGGGLVQAGGSLRLSCAASGRTVGSYVMGWFRQAPGKERELLAASSRSTGNTVYADSVKGRFTISRDDAKNTVFLQMNSLKPEDTAVYYCAARASINYNYANWPYWGQGTQVTVSP
In the case of B13, the results for the binding result in assay [1] and in assay [2] were “binds” and “no binding”, respectively.

B14: SR16983-R3-P4-E04 (VHH)
VHH: B13 VHH with V33A, M34V, L47F, V79L, F80Y, A98T, P122S
Regarding B14, the values for the binding result in assay [1] and in assay [2] were “binds” and “no binding”, respectively.

B15: SR16983-R3P2G9 (VHH)
VHH: B13 VHH with A14P, V29F, L47F, L48V, S51A, A61P, V79L, F80Y, P122S
B15: the binding result in assay [1] is given as “binds”; in assay [2], “no binding”.

B16: SR16983-R2P1C10 (VHH)
VHH: QLQLVESGGGLVQPGGSLRLSCAASGRIFGSYVMGWFRQAPGKEHEFVAASSRSTGNTVYLDSVKGRFTISRDDAKNTLYLQMNSLKPEDTAVYYCATRASINYNYANWPYRGQGTQVTVSS
On to B16, for which the results for the binding result in assay [1] and in assay [2] were “binds” and “no binding”, respectively.

B17: SR16983-R2P1C11 (VHH)
VHH: QLQLVESGGGLVQSGGSLRLSCTASGSTVRVTAGGWYRQAPGNERELVADIDNGGRPTYADSVKGRFTISRDNAKNAVDLQMNNLKPEDTAVYYCFVIAIPDSAPRPRAYWGQGTQVTVSS
Regarding B17, the figures for the binding result in assay [1] and in assay [2] were “binds” and “no binding”, respectively.

B18: SR16983-R3P2E05 (VHH)
VHH: QVQLVESGGGLVQAGGSLRLSCTTSGSTFSITAGGWYRQAPGEQRELVADVANDGSTSYAESVKGRFTISRDNAKNIVELQMSSLELEDTAVYVCFVVGISDSTPRPRAYWGQGTQVTVAS
With B18, the binding result in assay [1] is on record as “binds”; in assay [2] it was “no binding”.

B19: SR16983-R2-P4-G02 (VHH)
VHH: QLQLVESGGGLVQAGGSLRLSCAASGTTFSFVYMGWYRQAPGNQRDLVARISSDGSTNYADSVKGRFTISGDNAKNTVYLQMNSLRPEDTARYYCFYNGHLNKWGQGTQVTVSS
Regarding B19, the binding result is on record as “binds” in assay [1] and “no binding” in assay [2].

B20: SR16983-R2P1F04 (VHH)
VHH: B19 VHH with G26R, V32N, D54G, S56I, R86K
Turning to B20, the binding result is “binds” in assay [1] and “no binding” in assay [2].

B21: SR16983-R3-P5-A11 (VHH)
VHH: B19 VHH with L2V, R19G, S84N, R86K, L101V
In the case of B21, the values for the binding result in assay [1] and in assay [2] were “binds” and “no binding”, respectively.
